The text below walks through data of patent US20220025070A1 (Novartis, published 2022).

Changes are numbered by the printed parent chain.

The labels stand for the following.
B1: anti-FXI/FXIa antibody NOV1401 (antibody, human IgG1, lambda, V domains shown)
VH: QVQLLESGGGLVQPGGSLRLSCAASGFTFSTAAMSWVRQAPGKGLEWVSGISGSGSSTYYADSVKGRFTISRDNSKNTLYLQMNSLRAEDTAVYYCARELSYLYSGYYFDYWGQGTLVTVSS
VL: QSVLTQPPSASGTPGQRVTISCSGSSSNIGSNDVSWYQQLPGTAPKLLIYKNYNRPSGVPDRFSGSKSGTSASLAISGLQSEDEADYYCSAWDQRQFDVVFGGGTKLTVLG
notes: Captured through Fc in Octet, free in solution in SET (biotinylated NOV1401 used only on the detection plate), amine-coupled in SPR; also called anti-Factor XI antibody NOV1401; target antibody
B2: anti-NOV1401 Fab IDT1 (parental, first generation) (Fab, V domains shown)
VH: QVQLLESGGGLVQPGGSLRLSCAASGFTFSDYAMSWVRQAPGKGLEWVSVIDYSSSNTYYADSVKGRFTISRDNSKNTLYLQMNSLRAEDTAVYYCAREGYSYRSIRFDYWGQGTLVTVSS
VL: DIQMTQSPSSLSASVGDRVTITCRASQSISSNLNWYQQKPGKAPKLLIYAASNLQSGVPSRFSGSGSGTDFTLTISSLQPEDFATYYCLQFDHTPFTFGQGTKVEIKR
notes: also called parental Fab; parental antibody IDT1
B3: anti-NOV1401 Fab IDT1D (HC1 + LC2) (Fab, V domains shown)
VH: B2 VH with V50T, D52A, S54V, S55G, S56A, N57P, Y59H
VL: B2 VL with F91Y, D92Y, T94L, F96Y
notes: Cross-clone: heavy chain of IDT1C with light chain of IDT1A; expressed in 293 HEK cells; also called 1DT1D
B4: anti-NOV1401 Fab IDT1E (HC2 + LC2) (Fab, V domains shown)
VH: B2 VH with V50T, D52S, S54L, S55G, S56Q, N57E, T58K, Y59H
VL: B2 VL with F91Y, D92Y, T94L, F96Y
notes: Cross-clone: heavy chain of IDT1B with light chain of IDT1A; expressed in 293 HEK cells
B5: anti-NOV1401 Fab IDT1B, E. coli format (Fab, V domains shown)
VH: B2 VH with Q1E, V50T, D52S, S54L, S55G, S56Q, N57E, T58K, Y59H
VL: B2 VL
B6: anti-NOV1401 Fab IDT1C, mammalian format (HC1 + LC1) (Fab, V domains shown)
VH: B2 VH with V50T, D52A, S54V, S55G, S56A, N57P, Y59H
VL: B2 VL
B7: anti-NOV1401 Fab IDT1A, E. coli format (Fab, V domains shown)
VH: B2 VH with Q1E
VL: B2 VL with F91Y, D92Y, T94L, F96Y

For experiment [1], the target named is B3. Kind of experiment: SET: NOV1401 titrated against a constant Fab concentration in solution, free Fab captured on a biotin-NOV1401 streptavidin plate and detected with anti-human kappa-HRP. The method, then:
(§1) 14 serial 2-fold dilutions of NOV1401 (from 0.1 pM to 1 nM) were prepared in assay buffer (DPBS (Life Technologies) containing 0.5% BSA and 0.02% Tween-20), and a constant concentration of anti-NOV1401 Fab was added (10 pM, 20 pM or 40 pM). A volume of 60 μl/well of each NOV1401-anti-NOV1401 mix was dispensed in triplicates to a 384-well polypropylene microtiter plate (polypropylene MTP: Greiner, Cat. #781280). Assay buffer served as a negative control and a sample containing only anti-NOV1401 served as a positive control (Bmax). The plate was sealed and incubated overnight (o/n, at least 20 h) at room temperature (RT) on a shaker. A 384-well streptavidin (SA) plate from Life Technologies (Cat. #15505) was coated with 30 μl/well of Biotin-NOV1401 diluted in assay buffer for 2 h at RT on a shaker, then washed three times with wash buffer (PBS containing 0.05% Tween 20). After that 30 μl/well of the equilibrated NOV1401-anti-NOV1401 mix was transferred from the polypropylene MTP (Greiner) to the coated SA plate and incubated for 30 min at RT on a shaker. After an additional wash step, 30 μl/well anti-human Kappa LC-HRP detection antibody (BETHYL, Cat. #A80-115P; 0.05 μg/ml diluted in assay buffer) was added to each well and incubated for 60 min at RT on a shaker. The SA plate was washed, and 30 μl/well LumiGLO read buffer (KPL, Cat. #54-61-01; LumiGLO Peroxidase Chemiluminescent Substrate) was added and incubated for 1 min at RT. RLU signal was measured by the SPECTRAMAXM5 (Molecular Devices, Sunnyvale, Calif. USA).
(§2) KD and Bₘₐₓ were set as variables to be fitted by GraphPad Prism 7.03.

In experiment [2] the target is B4. Described as above. The method, then:
as §1, §2

In experiment [3] the target is B6. The experiment is described as above. The method, then:
as §1, §2

Experiment [4] deals with B1. The experiment is described as follows: solution equilibrium titration (SET), constant Fab with titrated NOV1401, RT, 1:1 fit, average. The method, then: as §1
(§3) All measurements were performed as triplicates and average RLU signals were calculated. Data were baseline-adjusted by subtracting the value for the lowest concentration from all data points and plotted against the corresponding NOV1401 concentration. The KD was determined by non-linear curve fitting using a 1:1 fit model as shown in Equation (according to Haenel et al., 2005, Anal Biochem. 339(1):182-4):
as §2

For experiment [5], the target named is B1. The experiment is described as follows: SPR (ProteOn XPR36), NOV1401 amine-coupled, Fab as analyte, 25 C, Langmuir 1:1. The method, then:
SPR binding experiments were performed on a ProteOn XPR36 instrument (Bio-Rad Laboratories, Inc.) in PBS/T buffer (50 mM phosphate, 150 mM NaCl, pH 7.4, 0.05% v/v Tween-20) at 25° C. NOV1401 (‘Ligand’) was immobilized onto an activated ProteOn GLC sensor chip (Bio-Rad Laboratories, Inc.) using standard amine coupling procedures as described by the manufacturer. Briefly, NOV1401 was injected at a concentration of […] in 20 mM sodium acetate, pH 5.0 and at a flow rate of 30 μl/min for 10 min. Unreacted groups were blocked by injecting 1 M ethanolamine.
For kinetic studies anti-NOV1401 Fabs (‘Analytes’) were diluted in PBS/T buffer to generate a dilution series with concentrations ranging from 0.125-4 nM. Fabs were injected onto surfaces with immobilized NOV1401 at a flow rate of 100 μL/min and sensorgrams were recorded for association and dissociation times of 220 s and 1800 s, respectively. Blank surfaces were used for background corrections. There was no need to regenerate surfaces since the ProteOn protein interaction array system allows to run up to six binding experiments on an identical surface in parallel.
Data processing and analysis including kₒₙ, koff, and KD determination were performed with the ProteOn Managerrm software version 3.1.0.6. Sensorgrams were fitted by applying a Langmuir 1:1 binding model (Rmax set at global) and dissociation constants were calculated from kₒₙ and koff.

Experiment [6] concerns the target B1. The experiment is described as follows: cell-based or functional assay.
The target of experiment [7] is B1. Kind of experiment: solution equilibrium titration (SET), 1:1 fit, average KD printed in the panel. On the procedure: as §1, with “A” for “14 serial 2-fold dilutions of NOV1401 (from 0.1 pM to 1 nM) were prepared in assay buffer (DPBS (Life Technologies) containing 0.5% BSA and 0.02% Tween-20), and a constant concentration of anti-NOV1401 Fab was added (10 pM, 20 pM or 40 pM). A”
as §3, §2

Experiment [8] concerns the target B1. The experiment is described as follows: Octet bio-layer interferometry, NOV1401 captured on anti-human IgG Fc (AHC) sensors, Fab at 25-400 nM in solution. On the procedure:
Affinity assessments were performed via Bio-Layer Interferometry technology. Anti-Human IgG Fc Capture (AHC) biosensors (Fortebio, Ref. 18-5060) were used to capture NOV1401. […] Buffer (Fortebio, Ref. 18-5032) alone was used for background (0 nM) determination. Fab association and dissociation were each recorded by measuring the change in layer thickness (in nanometers, nm) with time for 800 s each, all under computer control.
(In general: BLI is a label-free optical method that tracks binding on a fibre tip over time.)

Consider B1, for which the figures for the “IC50 (read off the curve)” value in experiment [1], in experiment [2] and in experiment [3] were roughly 20 pM, roughly 10 pM and 0.01 to 0.02 nM, respectively.

For orientation: Kd means a measure of binding affinity in units of concentration. High values mean a looser complex, low ones a tighter complex. For orientation: koff means the rate constant with which the complex falls apart. A lower koff goes with slow dissociation. For orientation: kon means the rate constant with which the complex forms. In experiment [4], B2 came in with a dissociation constant (Kd) of 110 pM. In experiment [5], this molecule gave a Kd of 0.44 nM, a dissociation rate constant (koff) of 0.00024 s⁻¹ and a kon of 550000 M⁻¹ s⁻¹.

In the case of B3, in experiment [6], the “aPTT reversal, NOV1401/anti-NOV1401 ratio (n/n) 1/3” value is 63%; the “aPTT reversal, NOV1401/anti-NOV1401 ratio (n/n) 1/9” value turned out to be 72%; the “aPTT reversal, NOV1401/anti-NOV1401 ratio (n/n) 1/30” value is 78%. Further, in experiment [5], the kon was found to be 440000 M⁻¹ s⁻¹. The Kd in experiment [7] was determined as 2.5 pM.

In the case of B4, in experiment [6], the “aPTT reversal, NOV1401/anti-NOV1401 ratio (n/n) 1/3” value came out at 72%; the “aPTT reversal, NOV1401/anti-NOV1401 ratio (n/n) 1/9” value came out at 84%; the “aPTT reversal, NOV1401/anti-NOV1401 ratio (n/n) 1/30” value came out at 83%. The dissociation constant (Kd) in experiment [4] stood at 2.5 pM. The on-rate (kon) in experiment [5] was determined as 690000 M⁻¹ s⁻¹. This molecule also returned a Kd in experiment [7] of 7 pM.

Turning to B5, the binding result in experiment [8] is recorded as “binds”.

In the case of B6, in experiment [6], the “aPTT reversal, NOV1401/anti-NOV1401 ratio (n/n) 1/3” value came to 79%; the “aPTT reversal, NOV1401/anti-NOV1401 ratio (n/n) 1/9” value was determined as 80%; the “aPTT reversal, NOV1401/anti-NOV1401 ratio (n/n) 1/30” value was 78%. This molecule also yielded a Kd in experiment [4] of 9.6 pM. Besides, the association rate constant (kon) in experiment [5] amounted to 250000 M⁻¹ s⁻¹. The same molecule came in with a dissociation constant (Kd) in experiment [7] of 9.6 pM.

For the molecule B7, in experiment [8], the binding result was “binds”.
